What was measured:
[1] = target: T1, LGN^13–409 (human); experiment: SEC + SEC-MALS; SEC and SLS assays on a battery of truncated LGN and NuMA mutants (Fig. 1c, d)
T1 sequence (P81274 whole entry, looked up): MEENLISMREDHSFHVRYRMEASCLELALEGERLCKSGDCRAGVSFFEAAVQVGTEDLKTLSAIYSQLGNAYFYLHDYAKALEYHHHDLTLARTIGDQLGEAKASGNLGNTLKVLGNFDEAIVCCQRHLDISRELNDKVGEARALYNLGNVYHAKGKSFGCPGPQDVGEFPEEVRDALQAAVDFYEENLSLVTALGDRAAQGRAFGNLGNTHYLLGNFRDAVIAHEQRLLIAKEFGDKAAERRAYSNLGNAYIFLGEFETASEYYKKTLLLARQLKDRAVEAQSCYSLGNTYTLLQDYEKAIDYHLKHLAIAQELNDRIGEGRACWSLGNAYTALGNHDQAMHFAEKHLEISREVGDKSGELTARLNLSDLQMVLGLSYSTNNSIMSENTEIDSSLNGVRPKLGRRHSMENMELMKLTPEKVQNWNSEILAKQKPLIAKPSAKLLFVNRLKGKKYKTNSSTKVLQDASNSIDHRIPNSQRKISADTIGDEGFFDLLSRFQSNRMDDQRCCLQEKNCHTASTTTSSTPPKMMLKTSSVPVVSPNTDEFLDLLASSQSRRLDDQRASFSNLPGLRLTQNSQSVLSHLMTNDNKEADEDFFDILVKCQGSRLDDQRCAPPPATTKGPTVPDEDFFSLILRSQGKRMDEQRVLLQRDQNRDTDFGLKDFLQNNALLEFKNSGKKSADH

[2] = target: T2, LGN^1–350 (human); experiment: as above
T2 sequence (P81274 whole entry, looked up): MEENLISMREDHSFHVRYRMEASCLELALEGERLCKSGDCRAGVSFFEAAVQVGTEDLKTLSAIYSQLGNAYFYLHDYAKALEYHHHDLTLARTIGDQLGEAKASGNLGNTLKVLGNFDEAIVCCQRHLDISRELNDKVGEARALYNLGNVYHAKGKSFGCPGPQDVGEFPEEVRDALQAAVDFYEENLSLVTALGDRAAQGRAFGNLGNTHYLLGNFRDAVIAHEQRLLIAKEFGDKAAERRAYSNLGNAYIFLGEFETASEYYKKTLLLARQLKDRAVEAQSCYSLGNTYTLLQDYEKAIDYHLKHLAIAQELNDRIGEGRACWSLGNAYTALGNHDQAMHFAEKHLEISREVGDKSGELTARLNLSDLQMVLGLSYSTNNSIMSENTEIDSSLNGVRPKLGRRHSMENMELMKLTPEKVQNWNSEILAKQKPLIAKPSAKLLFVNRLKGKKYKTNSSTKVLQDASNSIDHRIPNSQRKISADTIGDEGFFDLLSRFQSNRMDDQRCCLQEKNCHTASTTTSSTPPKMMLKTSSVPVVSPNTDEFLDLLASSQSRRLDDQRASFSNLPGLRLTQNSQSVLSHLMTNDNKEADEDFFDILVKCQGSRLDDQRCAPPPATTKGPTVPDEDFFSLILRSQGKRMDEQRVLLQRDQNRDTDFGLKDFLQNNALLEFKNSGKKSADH

[3] = target: T3, LGN^7–367 (human); experiment: SEC-MALS; static light scattering (SLS) on a Viscotek GPCmax/TDA with two TSKgel G3000PWxl columns in series; 75 μl of purified sample at about 1.5–2 mg/ml
T3 sequence (P81274 whole entry, looked up): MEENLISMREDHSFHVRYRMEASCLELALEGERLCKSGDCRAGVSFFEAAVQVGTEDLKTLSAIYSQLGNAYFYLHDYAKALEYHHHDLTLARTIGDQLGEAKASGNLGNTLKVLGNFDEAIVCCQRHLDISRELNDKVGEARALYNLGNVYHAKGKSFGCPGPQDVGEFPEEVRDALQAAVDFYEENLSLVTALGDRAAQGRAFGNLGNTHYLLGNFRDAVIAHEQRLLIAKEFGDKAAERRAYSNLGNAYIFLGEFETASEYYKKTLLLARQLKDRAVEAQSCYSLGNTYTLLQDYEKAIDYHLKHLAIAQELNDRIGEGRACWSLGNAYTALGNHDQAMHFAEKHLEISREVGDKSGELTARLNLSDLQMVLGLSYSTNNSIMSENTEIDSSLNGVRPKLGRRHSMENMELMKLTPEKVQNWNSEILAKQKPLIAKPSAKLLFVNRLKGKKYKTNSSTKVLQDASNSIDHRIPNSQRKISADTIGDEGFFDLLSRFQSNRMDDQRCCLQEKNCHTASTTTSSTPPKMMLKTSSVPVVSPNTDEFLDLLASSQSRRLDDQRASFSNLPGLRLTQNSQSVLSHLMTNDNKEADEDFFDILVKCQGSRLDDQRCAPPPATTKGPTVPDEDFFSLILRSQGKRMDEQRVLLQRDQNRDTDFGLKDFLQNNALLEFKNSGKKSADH

[4] = target: the molecule itself; experiment: as above
[5] = target: LGN^TPR-ΔOLIGO (LGN^13–350) (human); experiment: as above
[6] = target: αβ-tubulin hetero-dimers (UniProt P02554 1-445); experiment: SEC; Superdex-200 Increase 3.2/300; 26 µM NuMA^2002–2115 and 20 µM αβ-tubulin hetero-dimers; GT buffer (80 mM PIPES pH 6.8, 1 mM MgCl2, 1 mM EGTA) with 60 mM NaCl and 1 mM DTT; Tris-Tricine-SDS-PAGE; conditions: both partners purified
Chain of αβ-tubulin hetero-dimers (P68363 whole entry, chain 1 of 2, the tested form may be a part): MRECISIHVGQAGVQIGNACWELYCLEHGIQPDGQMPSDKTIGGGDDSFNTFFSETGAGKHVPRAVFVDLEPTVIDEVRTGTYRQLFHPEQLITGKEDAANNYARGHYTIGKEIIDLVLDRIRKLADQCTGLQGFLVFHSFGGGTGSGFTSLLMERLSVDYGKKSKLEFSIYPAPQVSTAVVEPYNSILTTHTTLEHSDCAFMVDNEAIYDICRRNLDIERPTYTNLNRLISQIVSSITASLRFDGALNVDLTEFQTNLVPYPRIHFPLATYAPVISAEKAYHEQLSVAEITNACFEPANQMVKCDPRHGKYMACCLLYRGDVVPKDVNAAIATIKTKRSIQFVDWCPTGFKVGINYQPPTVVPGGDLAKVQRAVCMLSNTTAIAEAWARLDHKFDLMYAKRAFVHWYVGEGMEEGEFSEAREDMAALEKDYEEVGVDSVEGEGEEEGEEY
Chain of αβ-tubulin hetero-dimers (P02554 whole entry, chain 2 of 2, the tested form may be a part): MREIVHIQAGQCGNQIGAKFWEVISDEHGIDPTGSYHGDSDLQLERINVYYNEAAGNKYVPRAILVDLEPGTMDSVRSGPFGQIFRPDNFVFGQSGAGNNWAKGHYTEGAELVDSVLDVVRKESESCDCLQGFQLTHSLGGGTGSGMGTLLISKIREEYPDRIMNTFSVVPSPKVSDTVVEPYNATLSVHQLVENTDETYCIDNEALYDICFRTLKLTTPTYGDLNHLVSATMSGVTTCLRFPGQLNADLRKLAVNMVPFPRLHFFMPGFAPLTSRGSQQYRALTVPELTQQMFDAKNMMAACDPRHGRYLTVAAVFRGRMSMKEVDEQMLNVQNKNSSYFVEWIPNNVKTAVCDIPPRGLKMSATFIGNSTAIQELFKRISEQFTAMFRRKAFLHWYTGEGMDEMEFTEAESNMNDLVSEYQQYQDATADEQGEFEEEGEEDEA

[7] = target: T4, LGN^1–409 (TPR domain of LGN) (human); experiment: SEC; analytical SEC, Superdex-200 Increase 3.2/300; LGN and NuMA variants mixed in equimolar amounts (20 μM; LGN^TPR:NuMA^PEPT 1:2); 20 mM Tris-HCl pH 8.0, 0.150 M NaCl, 5% glycerol, 1 mM DTT; fractions checked by SDS-PAGE
T4 sequence (P81274 whole entry, looked up): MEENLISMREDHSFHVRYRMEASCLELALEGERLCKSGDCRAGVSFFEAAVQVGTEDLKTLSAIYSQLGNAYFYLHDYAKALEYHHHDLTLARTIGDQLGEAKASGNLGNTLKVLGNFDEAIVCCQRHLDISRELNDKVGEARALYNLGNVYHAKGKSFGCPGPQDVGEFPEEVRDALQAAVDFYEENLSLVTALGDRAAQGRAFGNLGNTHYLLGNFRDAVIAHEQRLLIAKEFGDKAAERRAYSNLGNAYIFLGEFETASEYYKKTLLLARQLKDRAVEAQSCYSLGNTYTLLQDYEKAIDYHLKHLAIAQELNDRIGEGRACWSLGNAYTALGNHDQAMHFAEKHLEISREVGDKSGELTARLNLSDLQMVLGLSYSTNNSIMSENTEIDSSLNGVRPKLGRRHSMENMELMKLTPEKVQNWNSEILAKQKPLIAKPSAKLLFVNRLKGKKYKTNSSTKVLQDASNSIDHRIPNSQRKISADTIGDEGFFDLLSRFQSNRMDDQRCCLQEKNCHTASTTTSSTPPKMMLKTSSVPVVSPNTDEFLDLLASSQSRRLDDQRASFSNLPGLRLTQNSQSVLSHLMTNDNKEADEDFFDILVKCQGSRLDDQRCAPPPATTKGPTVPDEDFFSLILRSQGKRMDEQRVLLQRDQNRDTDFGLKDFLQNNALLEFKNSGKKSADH

B1: NuMA^1861–1928 (domain or fragment)
chain: GSPDYGNSALLSLPGYRPTTRSSARRSQAGVSSGAPPGRNSFYMGTCQDEPEQLDDWNRIAELQQRNR
stoichiometry N [1]: 1
stoichiometry N [2]: 1
stoichiometry N [3]: 1

B2: NuMA^1592–1694 (domain or fragment, human, UniProt Q14980 1592-1694, looked up)
chain: QLNELQAQLSQKEQAAEHYKLQMEKAKTHYDAKKQQNQELQEQLRSLEQLQKENKELRAEAERLGHELQQAGLKTKEAEQTCRHLTAQVRSLEAQVAHADQQL
notes: NuMA, human, residues 1592-1694 (C-terminal portion of the coiled coil); also called C-terminal part of the NuMA coiled-coil
stoichiometry N [4]: 2

B3: NuMA chimera (NuMA 1592–1694 joined to NuMA 1821–2001 by eight Thr-Gly-Ser repeats) (domain or fragment, human)
chain: QLNELQAQLSQKEQAAEHYKLQMEKAKTHYDAKKQQNQELQEQLRSLEQLQKENKELRAEAERLGHELQQAGLKTKEAEQTCRHLTAQVRSLEAQVAHADQQLTGSTGSTGSTGSTGSTGSTGSTGSKKLDVEEPDSANSSFYSTRSAPASQASLRATSSTQSLARLGSPDYGNSALLSLPGYRPTTRSSARRSQAGVSSGAPPGRNSFYMGTCQDEPEQLDDWNRIAELQQRNRVCPPHLKTCYPLESRPSLSLGTITDEEMKTGDPQETLRRASMQPIQIAEGTGITTRQQRKRVSLEPHQGPGTP
notes: NuMA, human, residues 1592-1694 (dimerizing coiled-coil); also called chimeric NuMA construct; source: E. coli BL21 Rosetta, purified (Ni HiTrap chelating, PreScission cleavage, Resource-Q, Superose-6)
stoichiometry N [5]: 1
stoichiometry N [4]: 2

B4: NuMA^2002–2115 (domain or fragment, human, UniProt Q14980 2002-2115, looked up)
chain: ESKKATSCFPRPMTPRDRHEGRKQSTTEAQKKAAPASTKQADRRQSMAFSILNTPKKLGNSLLRRGASKKALSKASPNTRSGTRRSPRIATTTASAATAAAIGATPRAKGKAKH
stoichiometry N [6]: 1

NSFYMGTCQDEPEQLDDWNRIAELQQRNR [NuMA^1900–1928]
stoichiometry N [7]: 1
